Laboratory results taken from patent publication US20230381229A1 (ALPINE IMMUNE SCIENCES, INC., published 2023).

T1: TIGIT (human)
T1 chain: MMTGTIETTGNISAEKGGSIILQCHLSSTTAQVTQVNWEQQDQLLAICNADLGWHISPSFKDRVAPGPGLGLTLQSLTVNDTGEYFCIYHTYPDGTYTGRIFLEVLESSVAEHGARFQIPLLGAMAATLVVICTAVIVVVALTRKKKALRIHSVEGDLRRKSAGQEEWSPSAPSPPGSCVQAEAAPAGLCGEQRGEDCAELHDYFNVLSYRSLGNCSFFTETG


Target: T1, TIGIT
Assay: cell-based or functional assay

Binder | IL-2 luciferase reporter, Normalized Fold Change from CD155-ECD, proteins at 50 nM [fold]
variant CD155 IgV-Fc P18S, A47G, L79P, F91S, L104M, T107A, R113W (Fc fusion) WPPPGTGDVVVQAPTQVSGFLGDSVTLPCYLQVPNMEVTHVSQLTWGRHGESGSMAVFHQTQGPSYSESKRLEFVAARPGAELRNASLRMSGLRVEDEGNYTCMFVAFPQGSWSVDIWLRVLGSGGGGSEPKSSDKTHTCPPCPAPEAEGAPSVFLFPPKPKDTLMISRTPEVTCVVVDVSHEDPEVKFNWYVDGVEVHNAKTKPREEQYNSTYRVVSVLTVLHQDWLNGKEYKCKVSNKALPAPIEKTISKAKGQPREPQVYTLPPSRDELTKNQVSLTCLVKGFYPSDIAVEWESNGQPENNYKTTPPVLDSDGSFFLYSKLTVDKSRWQQGNVFSCSVMHEALHNHYTQKSLSLSPGK | 5
variant CD155 IgV-Fc P18T, D23G, S24A, N35D, H49L, L79P, F91S, L104M, G111R (Fc fusion) WPPPGTGDVVVQAPTQVTGFLGGAVTLPCYLQVPDMEVTHVSQLTWARLGESGSMAVFHQTQGPSYSESKRLEFVAARPGAELRNASLRMSGLRVEDEGNYTCMFVTFPQRSRSVDIWLRVLGSGGGGSEPKSSDKTHTCPPCPAPEAEGAPSVFLFPPKPKDTLMISRTPEVTCVVVDVSHEDPEVKFNWYVDGVEVHNAKTKPREEQYNSTYRVVSVLTVLHQDWLNGKEYKCKVSNKALPAPIEKTISKAKGQPREPQVYTLPPSRDELTKNQVSLTCLVKGFYPSDIAVEWESNGQPENNYKTTPPVLDSDGSFFLYSKLTVDKSRWQQGNVFSCSVMHEALHNHYTQKSLSLSPGK | 3.2
variant CD155 IgV-Fc V11A, P18S, S54R, Q60P, Q62K, L79P, N85D, F91S, T107M (Fc fusion) WPPPGTGDVVAQAPTQVSGFLGDSVTLPCYLQVPNMEVTHVSQLTWARHGESGRMAVFHPTKGPSYSESKRLEFVAARPGAELRDASLRMSGLRVEDEGNYTCLFVMFPQGSRSVDIWLRVLGSGGGGSEPKSSDKTHTCPPCPAPEAEGAPSVFLFPPKPKDTLMISRTPEVTCVVVDVSHEDPEVKFNWYVDGVEVHNAKTKPREEQYNSTYRVVSVLTVLHQDWLNGKEYKCKVSNKALPAPIEKTISKAKGQPREPQVYTLPPSRDELTKNQVSLTCLVKGFYPSDIAVEWESNGQPENNYKTTPPVLDSDGSFFLYSKLTVDKSRWQQGNVFSCSVMHEALHNHYTQKSLSLSPGK | 2.6
variant CD155 IgV-Fc V9L, P18S, Q60R, V75L, L79P, R89K, F91S, L104E, G111R (Fc fusion) WPPPGTGDLVVQAPTQVSGFLGDSVTLPCYLQVPNMEVTHVSQLTWARHGESGSMAVFHRTQGPSYSESKRLEFLAARPGAELRNASLKMSGLRVEDEGNYTCEFVTFPQRSRSVDIWLRVLGSGGGGSEPKSSDKTHTCPPCPAPEAEGAPSVFLFPPKPKDTLMISRTPEVTCVVVDVSHEDPEVKFNWYVDGVEVHNAKTKPREEQYNSTYRVVSVLTVLHQDWLNGKEYKCKVSNKALPAPIEKTISKAKGQPREPQVYTLPPSRDELTKNQVSLTCLVKGFYPSDIAVEWESNGQPENNYKTTPPVLDSDGSFFLYSKLTVDKSRWQQGNVFSCSVMHEALHNHYTQKSLSLSPGK | 1.8
variant CD155 IgV-Fc V11A, P18S, L79P, F91S, L104M, G111R (Fc fusion) WPPPGTGDVVAQAPTQVSGFLGDSVTLPCYLQVPNMEVTHVSQLTWARHGESGSMAVFHQTQGPSYSESKRLEFVAARPGAELRNASLRMSGLRVEDEGNYTCMFVTFPQRSRSVDIWLRVLGSGGGGSEPKSSDKTHTCPPCPAPEAEGAPSVFLFPPKPKDTLMISRTPEVTCVVVDVSHEDPEVKFNWYVDGVEVHNAKTKPREEQYNSTYRVVSVLTVLHQDWLNGKEYKCKVSNKALPAPIEKTISKAKGQPREPQVYTLPPSRDELTKNQVSLTCLVKGFYPSDIAVEWESNGQPENNYKTTPPVLDSDGSFFLYSKLTVDKSRWQQGNVFSCSVMHEALHNHYTQKSLSLSPGK | 0.4
